Measurements as given in patent US20220291215A1.
Like-named read-outs stand apart in the source and are kept apart here.

Assays:
[1] = molecular target: Transduced TCR: None
[2] = molecular target: DR1-restricted TCR HA1.7
[3] = molecular target: memory CD4+ T cells from DR1+ donors, unstimulated (a small subset; their TCRs)
[4] = molecular target: memory CD4+ T cells from DR1+ donors, unstimulated (a small subset; their TCRs); remark: listed apart in the source
[5] = molecular target: memory CD4+ T cells from DR1+ donors, unstimulated (a small subset; their TCRs); remark: listed apart in the source
[6] = molecular target: memory CD4+ T cells from DR1+ donors, unstimulated (a small subset; their TCRs); remark: listed apart in the source
[7] = molecular target: Transduced TCR: None; remark: listed apart in the source
[8] = molecular target: DR1-restricted TCR HA1.7; remark: listed apart in the source
[9] = molecular target: DR1-restricted TCR HA1.7; remark: listed apart in the source
[10] = molecular target: DR1-restricted TCR HA1.7; assay: flow cytometry, TCR-transduced primary T cells
[11] = molecular target: Transduced TCR: None; remark: listed apart in the source
[12] = molecular target: DR1-restricted TCR HA1.7; remark: listed apart in the source
[13] = molecular target: memory CD4+ T cells from DR1+ donors, unstimulated (a small subset; their TCRs); remark: listed apart in the source
[14] = molecular target: memory CD4+ T cells from DR1+ donors, unstimulated (a small subset; their TCRs); remark: listed apart in the source
[15] = molecular target: memory CD4+ T cells from DR1+ donors, unstimulated (a small subset; their TCRs); remark: listed apart in the source
[16] = molecular target: memory CD4+ T cells from DR1+ donors, unstimulated (a small subset; their TCRs); remark: listed apart in the source
[17] = molecular target: memory CD4+ T cells from DR1+ donors, unstimulated (a small subset; their TCRs); remark: listed apart in the source
[18] = molecular target: Transduced TCR: None; remark: listed apart in the source

DR1^L114W/V143M dimer loaded with Flu-HA306-318 (peptide-MHC)
percent multimer-positive CD4+ cells (number at the gate) [1]: 0%
percent multimer-positive CD4+ cells (number at the gate) [2]: 1.5%

DR1^L114W/V143M+2reps dimer loaded with Flu-HA117-136 (peptide-MHC)
events in the dimer+ CD4+ gate [3]: 10 evts
events in the dimer+ CD4+ gate [4]: 74 evts

DR1^L114W/V143M+2reps dimer loaded with Flu-HA306-318 (peptide-MHC)
events in the dimer+ CD4+ gate [5]: 18 evts
events in the dimer+ CD4+ gate [6]: 53 evts
percent multimer-positive CD4+ cells (number at the gate) [7]: 0%
percent multimer-positive CD4+ cells (number at the gate) [8]: 48.9%
percent multimer-positive CD4+ cells (number at the gate) [9]: 53%
% dimer+ CD4+ cells [10]: 9.1%

DR1^L114W/V143M+6reps dimer loaded with Flu-HA306-318 (peptide-MHC)
percent multimer-positive CD4+ cells (number at the gate) [11]: 0.1%
percent multimer-positive CD4+ cells (number at the gate) [12]: 48.2%

Flu-HA5-24, DR1^L114W/V143M+2reps dimer (PE) (peptide-MHC)
events in the dimer+ CD4+ gate [13]: 1 evts
events in the dimer+ CD4+ gate [14]: 2 evts

Flu-HA232-251, DR1^L114W/V143M+2reps dimer (PE) (peptide-MHC)
events in the dimer+ CD4+ gate [15]: 0 evts

Flu-HA268-287, DR1^L114W/V143M+2reps dimer (PE) (peptide-MHC)
events in the dimer+ CD4+ gate [16]: 0 evts
events in the dimer+ CD4+ gate [17]: 2 evts

wild-type DR1 dimer loaded with Flu-HA306-318 (from UniProt P01911 30-227) (peptide-MHC)
percent multimer-positive CD4+ cells (number at the gate) [18]: 0.1%
